Source: patent US11260115B1, “Peptides and combination of peptides for use in immunotherapy against CLL and other cancers” (immatics biotechnologies GmbH, priority 2015, dated 2022)

Molecular target: HLA-A*02:01 (Homo sapiens, UniProt P04439, D140Y/D185E/D98H/E176V/E277Q/G131W/G231S/I119V/I121R/I166T/I218V/L300P/L318F/N151K/N90K/P208A/P217A/Q86G/Q94H/R138H/R169H/T345S)
Experiment: MHC binding assay (UV-ligand exchange, β2m ELISA, peptide exchange yield)
Conditions: binding to HLA-A*02:01
Description: Candidate peptides for T cell based therapies according to the present invention were further tested for their MHC binding capacity (affinity). The individual peptide-MHC complexes were produced by UV-ligand exchange, where a UV-sensitive peptide is cleaved upon UV-irradiation, and exchanged with the peptide of interest as analyzed. Only peptide candidates that can effectively bind and stabilize the peptide-receptive MHC molecules prevent dissociation of the MHC complexes. To determine the yield of the exchange reaction, an ELISA was performed based on the detection of the light chain (β2m) of stabilized MHC complexes. The assay was performed as generally described in Rodenko et al. (Rodenko et al., 2006).
96 well MAXISorp plates (NUNC) were coated over night with 2 ug/ml streptavidin in PBS at room temperature, washed 4× and blocked for 1 h at 37° C. in 2% BSA containing blocking buffer. Refolded HLA-A*02:01/MLA-001 monomers served as standards, covering the range of 15-500 ng/ml. Peptide-MHC monomers of the UV-exchange reaction were diluted 100 fold in blocking buffer. Samples were incubated for 1 h at 37° C., washed four times, incubated with 2 ug/ml HRP conjugated anti-β2m for 1 h at 37° C., washed again and detected with TMB solution that is stopped with […]. Absorption was measured at 450 nm. Candidate peptides that show a high exchange yield (preferably higher than 50%, most preferred higher than 75%) are generally preferred for a generation and production of antibodies or fragments thereof, and/or T cell receptors or fragments thereof, as they show sufficient avidity to the MHC molecules and prevent dissociation of the MHC complexes.
Table 11: MHC class I binding scores. Binding of HLA-class I restricted peptides to HLA-A*02:01 was ranged by peptide exchange yield: ≥10%=+; ≥20%=++; ≥50=+++; ≥75%=++++

| Substance | Peptide Exchange (MHC class I binding score, peptide exchange yield) |
| --- | --- |
| 1 (AIPPSFASIFL; listed as Homo sapiens) [compound 1] | “+++” (>50 = +++) |
| 3 (VIAELPPKV; listed as Homo sapiens) [compound 3] | “++” (>20% = ++) |
| 4 (VIAELPPKVSV; listed as Homo sapiens) [compound 4] | “+++” (>50 = +++) |
| 5 (ALIFKIASA; listed as Homo sapiens) [compound 5] | “+++” (>50 = +++) |
| 6 (ALDTLEDDMTI; listed as Homo sapiens) [compound 6] | “+++” (>50 = +++) |
| 7 (ALLERTGYTL; listed as Homo sapiens) [compound 7] | “+++” (>50 = +++) |
| 8 (ALAASALPALV; listed as Homo sapiens) [compound 8] | “+++” (>50 = +++) |
| 9 (ALCDTLITV; listed as Homo sapiens) [compound 9] | “+++” (>50 = +++) |
| 10 (FVYGESVEL; listed as Homo sapiens) [compound 10] | “+++” (>50 = +++) |
| 11 (ALFTFSPLTV; listed as Homo sapiens) [compound 11] | “+++” (>50 = +++) |
| 12 (ALGEDEITL; listed as Homo sapiens) [compound 12] | “+++” (>50 = +++) |
| 13 (VVDGMPPGV; listed as Homo sapiens) [compound 13] | “+++” (>50 = +++) |
| 14 (ALLRLLPGL; listed as Homo sapiens) [compound 14] | “+++” (>50 = +++) |
| 15 (ALPEVSVEA; listed as Homo sapiens) [compound 15] | “+++” (>50 = +++) |
| 16 (ALPGGAAVAAV; listed as Homo sapiens) [compound 16] | “++++” (>75% = ++++) |
| 18 (LLGEFSIKM; listed as Homo sapiens) [compound 18] | “+++” (>50 = +++) |
| 19 (QVMEKLAAV; listed as Homo sapiens) [compound 19] | “+++” (>50 = +++) |
| 20 (ALVDPGPDFVV; listed as Homo sapiens) [compound 20] | “+++” (>50 = +++) |
| 21 (ALWAGLLTL; listed as Homo sapiens) [compound 21] | “+++” (>50 = +++) |
| 22 (ALWDPVIEL; listed as Homo sapiens) [compound 22] | “+++” (>50 = +++) |
| 23 (ALYLTEVFL; listed as Homo sapiens) [compound 23] | “++++” (>75% = ++++) |
| 24 (AMAGDVVYA; listed as Homo sapiens) [compound 24] | “+++” (>50 = +++) |
| 25 (ATYSGLESQSV; listed as Homo sapiens) [compound 25] | “++” (>20% = ++) |
| 27 (AVLGLVWLL; listed as Homo sapiens) [compound 27] | “+++” (>50 = +++) |
| 28 (AVLHLLLSV; listed as Homo sapiens) [compound 28] | “++” (>20% = ++) |
| 29 (AVLQAVTAV; listed as Homo sapiens) [compound 29] | “+++” (>50 = +++) |

| Substance | Peptide Exchange (MHC class I binding score, peptide exchange yield) |
| --- | --- |
| 30 (ELLEGSEIYL; listed as Homo sapiens) [compound 30] | “+++” (>50 = +++) |
| 31 (ELMHGVAGV; listed as Homo sapiens) [compound 31] | “+++” (>50 = +++) |
| 34 (YLPYIFPNI; listed as Homo sapiens) [compound 34] | “+++” (>50 = +++) |
| 35 (FILPSSLYL; listed as Homo sapiens) [compound 35] | “+++” (>50 = +++) |
| 36 (FILTHVDQL; listed as Homo sapiens) [compound 36] | “++++” (>75% = ++++) |
| 37 (FIMEGGAMVL; listed as Homo sapiens) [compound 37] | “++++” (>75% = ++++) |
| 38 (FIMEGGAMV; listed as Homo sapiens) [compound 38] | “+++” (>50 = +++) |
| 39 (FLDALLTDV; listed as Homo sapiens) [compound 39] | “+++” (>50 = +++) |
| 40 (FLDEDDMSL; listed as Homo sapiens) [compound 40] | “++” (>20% = ++) |
| 41 (FLDPSLDPLL; listed as Homo sapiens) [compound 41] | “+++” (>50 = +++) |
| 42 (FLEEGGVVTV; listed as Homo sapiens) [compound 42] | “+++” (>50 = +++) |
| 43 (FLLGPEALSFA; listed as Homo sapiens) [compound 43] | “++++” (>75% = ++++) |
| 44 (FLLSINDFL; listed as Homo sapiens) [compound 44] | “+++” (>50 = +++) |
| 45 (FLPELPADLEA; listed as Homo sapiens) [compound 45] | “+++” (>50 = +++) |
| 46 (YIIDSAQAV; listed as Homo sapiens) [compound 46] | “+++” (>50 = +++) |
| 47 (FLSDQPEPYL; listed as Homo sapiens) [compound 47] | “++” (>20% = ++) |
| 48 (FLSPQQPPLL; listed as Homo sapiens) [compound 48] | “+++” (>50 = +++) |
| 49 (FLTDLFAQL; listed as Homo sapiens) [compound 49] | “++++” (>75% = ++++) |
| 50 (FLFEPVVKAFL; listed as Homo sapiens) [compound 50] | “+++” (>50 = +++) |
| 51 (FLVEAPHDWDL; listed as Homo sapiens) [compound 51] | “++++” (>75% = ++++) |
| 52 (FLVETGFLHV; listed as Homo sapiens) [compound 52] | “++++” (>75% = ++++) |
| 53 (FLWQHVELVL; listed as Homo sapiens) [compound 53] | “+++” (>50 = +++) |
| 55 (FMEPTLLML; listed as Homo sapiens) [compound 55] | “+++” (>50 = +++) |
| 56 (FVFEAPYTL; listed as Homo sapiens) [compound 56] | “+++” (>50 = +++) |
| 58 (YIQQGIFSV; listed as Homo sapiens) [compound 58] | “+++” (>50 = +++) |
